Assay results: US20260015399A1 (Boehringer Ingelheim, published 2026)
*1 amine or outer side, *2 acyl side, *3 side chain or, on linkers, in order; H or OH if unused. Side-chain parts run from the residue outwards. The star is where a group is joined. C18 diacid = O=C(O)CCCCCCCCCCCCCCCCC(=O)*; γGlu = O=C(O)[C@H](CCC(=O)[*:2])N[*:1]; Isovaleryl = CC(C)CC(=O)*; Ahx = NCCCCCC(=O)O

T1: human NPY2 receptor (human, UniProt P49146 1-381)
T1 construct: whole, on cells; also called hNPY2-R; hNPY2R
T1 sequence (looked up): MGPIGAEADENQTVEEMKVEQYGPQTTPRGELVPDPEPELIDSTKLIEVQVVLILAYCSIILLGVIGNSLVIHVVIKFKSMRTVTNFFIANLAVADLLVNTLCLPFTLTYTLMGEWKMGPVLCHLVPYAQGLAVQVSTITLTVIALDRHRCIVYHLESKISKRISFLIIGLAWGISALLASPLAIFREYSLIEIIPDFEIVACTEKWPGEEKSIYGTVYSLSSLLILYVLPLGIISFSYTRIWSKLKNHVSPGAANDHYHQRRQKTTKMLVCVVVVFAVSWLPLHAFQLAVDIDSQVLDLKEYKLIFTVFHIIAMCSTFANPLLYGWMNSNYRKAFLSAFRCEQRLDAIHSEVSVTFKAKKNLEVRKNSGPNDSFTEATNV

T2: human NPY5 receptor (human, UniProt Q15761 1-445)
T2 sequence (looked up): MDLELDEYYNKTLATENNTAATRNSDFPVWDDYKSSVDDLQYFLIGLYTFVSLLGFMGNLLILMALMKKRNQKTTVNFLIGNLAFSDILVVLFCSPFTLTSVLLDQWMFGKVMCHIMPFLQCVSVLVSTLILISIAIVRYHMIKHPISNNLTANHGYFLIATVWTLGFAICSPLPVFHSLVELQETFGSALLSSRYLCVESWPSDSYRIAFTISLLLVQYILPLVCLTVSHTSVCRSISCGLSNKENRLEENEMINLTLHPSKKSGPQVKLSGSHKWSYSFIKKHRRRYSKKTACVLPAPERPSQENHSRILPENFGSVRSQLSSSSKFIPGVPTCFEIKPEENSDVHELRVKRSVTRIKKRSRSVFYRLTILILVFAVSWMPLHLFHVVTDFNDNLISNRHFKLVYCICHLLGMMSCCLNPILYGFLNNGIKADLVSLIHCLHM

B1: Compound 14 (peptide)
peptide: Isovaleryl-APEK([Ahx-γGlu-C18 diacid])PPEDASPEELQRYYVSLRHYYNWLTRQRY-NH2
SMILES: CC(C)CC(=O)N[C@@H](C)C(=O)N1CCC[C@H]1C(=O)N[C@@H](CCC(=O)O)C(=O)N[C@@H](CCCCNC(=O)CCCCCNC(=O)CC[C@H](NC(=O)CCCCCCCCCCCCCCCCC(=O)O)C(=O)O)C(=O)N1CCC[C@H]1C(=O)N1CCC[C@H]1C(=O)N[C@@H](CCC(=O)O)C(=O)N[C@@H](CC(=O)O)C(=O)N[C@@H](C)C(=O)N[C@@H](CO)C(=O)N1CCC[C@H]1C(=O)N[C@@H](CCC(=O)O)C(=O)N[C@@H](CCC(=O)O)C(=O)N[C@@H](CC(C)C)C(=O)N[C@@H](CCC(N)=O)C(=O)N[C@@H](CCCNC(=N)N)C(=O)N[C@@H](Cc1ccc(O)cc1)C(=O)N[C@@H](Cc1ccc(O)cc1)C(=O)N[C@H](C(=O)N[C@@H](CO)C(=O)N[C@@H](CC(C)C)C(=O)N[C@@H](CCCNC(=N)N)C(=O)N[C@@H](Cc1c[nH]cn1)C(=O)N[C@@H](Cc1ccc(O)cc1)C(=O)N[C@@H](Cc1ccc(O)cc1)C(=O)N[C@@H](CC(N)=O)C(=O)N[C@@H](Cc1c[nH]c2ccccc12)C(=O)N[C@@H](CC(C)C)C(=O)N[C@H](C(=O)N[C@@H](CCCNC(=N)N)C(=O)N[C@@H](CCC(N)=O)C(=O)N[C@@H](CCCNC(=N)N)C(=O)N[C@@H](Cc1ccc(O)cc1)C(N)=O)[C@@H](C)O)C(C)C
B2: Compound 16 (peptide)
peptide: Isovaleryl-APEK([Ahx-γGlu-C18 diacid])PEEDATPEELQKYYVSLRHYYNWLTRQRY-NH2
SMILES: CC(C)CC(=O)N[C@@H](C)C(=O)N1CCC[C@H]1C(=O)N[C@@H](CCC(=O)O)C(=O)N[C@@H](CCCCNC(=O)CCCCCNC(=O)CC[C@H](NC(=O)CCCCCCCCCCCCCCCCC(=O)O)C(=O)O)C(=O)N1CCC[C@H]1C(=O)N[C@@H](CCC(=O)O)C(=O)N[C@@H](CCC(=O)O)C(=O)N[C@@H](CC(=O)O)C(=O)N[C@@H](C)C(=O)N[C@H](C(=O)N1CCC[C@H]1C(=O)N[C@@H](CCC(=O)O)C(=O)N[C@@H](CCC(=O)O)C(=O)N[C@@H](CC(C)C)C(=O)N[C@@H](CCC(N)=O)C(=O)N[C@@H](CCCCN)C(=O)N[C@@H](Cc1ccc(O)cc1)C(=O)N[C@@H](Cc1ccc(O)cc1)C(=O)N[C@H](C(=O)N[C@@H](CO)C(=O)N[C@@H](CC(C)C)C(=O)N[C@@H](CCCNC(=N)N)C(=O)N[C@@H](Cc1c[nH]cn1)C(=O)N[C@@H](Cc1ccc(O)cc1)C(=O)N[C@@H](Cc1ccc(O)cc1)C(=O)N[C@@H](CC(N)=O)C(=O)N[C@@H](Cc1c[nH]c2ccccc12)C(=O)N[C@@H](CC(C)C)C(=O)N[C@H](C(=O)N[C@@H](CCCNC(=N)N)C(=O)N[C@@H](CCC(N)=O)C(=O)N[C@@H](CCCNC(=N)N)C(=O)N[C@@H](Cc1ccc(O)cc1)C(N)=O)[C@@H](C)O)C(C)C)[C@@H](C)O
B3: Compound 23 (peptide)
peptide: Isovaleryl-APEK([Ahx-γGlu-C18 diacid])PEEEASPEELQRYYVSLRHYYNWLTRQRY-NH2
SMILES: CC(C)CC(=O)N[C@@H](C)C(=O)N1CCC[C@H]1C(=O)N[C@@H](CCC(=O)O)C(=O)N[C@@H](CCCCNC(=O)CCCCCNC(=O)CC[C@H](NC(=O)CCCCCCCCCCCCCCCCC(=O)O)C(=O)O)C(=O)N1CCC[C@H]1C(=O)N[C@@H](CCC(=O)O)C(=O)N[C@@H](CCC(=O)O)C(=O)N[C@@H](CCC(=O)O)C(=O)N[C@@H](C)C(=O)N[C@@H](CO)C(=O)N1CCC[C@H]1C(=O)N[C@@H](CCC(=O)O)C(=O)N[C@@H](CCC(=O)O)C(=O)N[C@@H](CC(C)C)C(=O)N[C@@H](CCC(N)=O)C(=O)N[C@@H](CCCNC(=N)N)C(=O)N[C@@H](Cc1ccc(O)cc1)C(=O)N[C@@H](Cc1ccc(O)cc1)C(=O)N[C@H](C(=O)N[C@@H](CO)C(=O)N[C@@H](CC(C)C)C(=O)N[C@@H](CCCNC(=N)N)C(=O)N[C@@H](Cc1c[nH]cn1)C(=O)N[C@@H](Cc1ccc(O)cc1)C(=O)N[C@@H](Cc1ccc(O)cc1)C(=O)N[C@@H](CC(N)=O)C(=O)N[C@@H](Cc1c[nH]c2ccccc12)C(=O)N[C@@H](CC(C)C)C(=O)N[C@H](C(=O)N[C@@H](CCCNC(=N)N)C(=O)N[C@@H](CCC(N)=O)C(=O)N[C@@H](CCCNC(=N)N)C(=O)N[C@@H](Cc1ccc(O)cc1)C(N)=O)[C@@H](C)O)C(C)C
B4: Compound 15 (peptide)
peptide: Isovaleryl-APEK([Ahx-γGlu-C18 diacid])PEEDASPEEIQQYYVSLRHYYNWLTRQRY-NH2
SMILES: CC[C@H](C)[C@H](NC(=O)[C@H](CCC(=O)O)NC(=O)[C@H](CCC(=O)O)NC(=O)[C@@H]1CCCN1C(=O)[C@H](CO)NC(=O)[C@H](C)NC(=O)[C@H](CC(=O)O)NC(=O)[C@H](CCC(=O)O)NC(=O)[C@H](CCC(=O)O)NC(=O)[C@@H]1CCCN1C(=O)[C@H](CCCCNC(=O)CCCCCNC(=O)CC[C@H](NC(=O)CCCCCCCCCCCCCCCCC(=O)O)C(=O)O)NC(=O)[C@H](CCC(=O)O)NC(=O)[C@@H]1CCCN1C(=O)[C@H](C)NC(=O)CC(C)C)C(=O)N[C@@H](CCC(N)=O)C(=O)N[C@@H](CCC(N)=O)C(=O)N[C@@H](Cc1ccc(O)cc1)C(=O)N[C@@H](Cc1ccc(O)cc1)C(=O)N[C@H](C(=O)N[C@@H](CO)C(=O)N[C@@H](CC(C)C)C(=O)N[C@@H](CCCNC(=N)N)C(=O)N[C@@H](Cc1c[nH]cn1)C(=O)N[C@@H](Cc1ccc(O)cc1)C(=O)N[C@@H](Cc1ccc(O)cc1)C(=O)N[C@@H](CC(N)=O)C(=O)N[C@@H](Cc1c[nH]c2ccccc12)C(=O)N[C@@H](CC(C)C)C(=O)N[C@H](C(=O)N[C@@H](CCCNC(=N)N)C(=O)N[C@@H](CCC(N)=O)C(=O)N[C@@H](CCCNC(=N)N)C(=O)N[C@@H](Cc1ccc(O)cc1)C(N)=O)[C@@H](C)O)C(C)C
B5: Compound 26 (peptide)
peptide: Isovaleryl-APAK([Ahx-γGlu-C18 diacid])PEEDATPEELQRYYVSLRHYYNWLTRQRY-NH2
SMILES: CC(C)CC(=O)N[C@@H](C)C(=O)N1CCC[C@H]1C(=O)N[C@@H](C)C(=O)N[C@@H](CCCCNC(=O)CCCCCNC(=O)CC[C@H](NC(=O)CCCCCCCCCCCCCCCCC(=O)O)C(=O)O)C(=O)N1CCC[C@H]1C(=O)N[C@@H](CCC(=O)O)C(=O)N[C@@H](CCC(=O)O)C(=O)N[C@@H](CC(=O)O)C(=O)N[C@@H](C)C(=O)N[C@H](C(=O)N1CCC[C@H]1C(=O)N[C@@H](CCC(=O)O)C(=O)N[C@@H](CCC(=O)O)C(=O)N[C@@H](CC(C)C)C(=O)N[C@@H](CCC(N)=O)C(=O)N[C@@H](CCCNC(=N)N)C(=O)N[C@@H](Cc1ccc(O)cc1)C(=O)N[C@@H](Cc1ccc(O)cc1)C(=O)N[C@H](C(=O)N[C@@H](CO)C(=O)N[C@@H](CC(C)C)C(=O)N[C@@H](CCCNC(=N)N)C(=O)N[C@@H](Cc1c[nH]cn1)C(=O)N[C@@H](Cc1ccc(O)cc1)C(=O)N[C@@H](Cc1ccc(O)cc1)C(=O)N[C@@H](CC(N)=O)C(=O)N[C@@H](Cc1c[nH]c2ccccc12)C(=O)N[C@@H](CC(C)C)C(=O)N[C@H](C(=O)N[C@@H](CCCNC(=N)N)C(=O)N[C@@H](CCC(N)=O)C(=O)N[C@@H](CCCNC(=N)N)C(=O)N[C@@H](Cc1ccc(O)cc1)C(N)=O)[C@@H](C)O)C(C)C)[C@@H](C)O

How the values were obtained:
[1] = target: T1, human NPY2 receptor; test: RLB: displacement of 125I-PYY(1-36) from hNPY2R membranes
[2] = target: T1, human NPY2 receptor; test: cell-based or functional assay
[3] = target: T2, human NPY5 receptor; test: cell-based or functional assay

Row | Binder | Ki [1] [nM] | EC50, HTRF cAMP Gi assay [2] [nM] | EC50, HTRF cAMP Gi assay [3] [nM]
1 | B1 | 1.28 | 0.086 | > 5000
2 | B2 | 2.81 | 0.31 | > 5000
3 | B3 | 12.6 | 0.181 | > 5000
4 | B4 | 3.98 | 0.14 | > 5000
5 | B5 | 5.64 | 0.108 | > 5000
